experiment: label from the status in PepcDB records

Row | Sequence | protein production
1 | MKLLAITSCPNGIAHTYMAAENLQKAADRMGVQMKVETQGGIGVENELTEQEIREADAIIIAADRSVNKDRFIGKKLLAVGVQEGIRKPEELIQKAIGGDIPVYRSAVKTEASAQTEKKQNPIYRHLMNGVSFMVPFIVVGGLLIAVALTLGGEKTPKGLVIPDDSFWKTIEQIGAASFSFMIPILAGYIAYSIADKPGLVPGMIGGYIAATGSFYGSGSGAGFLGGIIAGFLAGYAALAIKKLKVPKAIQPIMPIIVIPVVSSLIVGLAFVLLIGAPVAQIFESLTVWLAGMQGSSSILLALILGAMISFDMGGPVNKVAFLFGSAMIGEGNYEIMGPIAVAICIPPIGLGIATFLGKRKFQAQEREMGKAAFTMGLFGITEGAIPFAAQDPLRVIPSIMAGSMTGSVIAMIGNVGDRVAHGGPIVAVLGAVDHVLMFFIAVIAGSLVTSLLVNVLKKEVTAAPAGISEAAAGNDIPQPNIEIEAESKKIEKPEITKLTDIIDTDLIEPHLSGDTRDDIIDEMIQKLSRKGVLHSESEFKQAIINRELEGTTAIGMNIAIPHGKSDAVKKPSVAFGIKRSGVDWRSLDGTDAKLIFMIAVPKESGGNEHLKLLQMLSRKLMDDTYRDKLLSAQTKEEAYKLLDEII | failed
2 | MKLNATYIKIRDKWWGLPLFLPSLILPIFAHINTFAHISSGEVFLFYLPLALMISMMMFFSWAALPGIALGIFVRKYAELGFYETLSLTANFIIIIILCWGGYRVFTPRRNNVSHGDTRLISQRIFWQIVFPATLFLILFQFAAFVGLLASRENLVGVMPFNLGTLINYQALLVGNLIGVPLCYFIIRVVRNPFYLRSYYSQLKQQVDAKVTKKEFALWLLALGALLLLLCMPLNEKSTIFSTNYTLSLLLPLMMWGAMRYGYKLISLLWAVVLMISIHSYQNYIPIYPGYTTQLTITSSSYLVFSFIVNYMAVLATRQRAVVRRIQRLAYVDPVVHLPNVRALNRALRDAPWSALCYLRIPGMEMLVKNYGIMLRIQYKQKLSHWLSPLLEPGEDVYQLSGNDLALRLNTESHQERITALDSHLKQFRFFWDGMPMQPQIGVSYCYVRSPVNHIYLLLGELNTVAELSIVTNAPENMQRRGAMYLQRELKDKVAMMNRLQQALEHNHFFLMAQPITGMRGDVYHEILLRMKGENDELISPDSFLPVAHEFGLSSSIDMWVIEHTLQFMAENRAKMPAHRFAINLSPTSVCQARFPVEVSQLLAKYQIEAWQLIFEVTESNALTNVKQAQITLQHLQELGCQIAIDDFGTGYASYARLKNVNADLLKIDGSFIRNIVSNSLDYQIVASICHLARMKKMLVVAEYVENEEIREAVLSLGIDYMQGYLIGKPQPLIDTLNEIEPIRESA | failed
3 | MKLNRAIGVIDSGVGGLTVAKELIRQLPKERIIYLGDTARCPYGPRSREEVRQFTWEMTEHLLDLNIKMLVIACNTATAVVLEEMQKQLPIPVVGVIHPGSRTALKVTNTYHVGIIGTIGTVKSGAYEEALKSINNRVMVESLACPPFVELVESGNFESEMAYEVVRETLQPLKNTDIDTLILGCTHYPILGPVIKQVMGDKVQLISSGDETAREVSTILYHSKMLNEGEEQSDHLFLTTGKIGLFKEIASKWFGQPIENVKHIHLEKE | failed
4 | MKLRTQISILLIVFAVLLSGIVFAGFQLNKESVTGRQLDETTQHSERIAAGLDTRLKGLKRTVRLQATNPAIAAHGTPQQHYALKTMVNETMFNGVSVIHRNGTMTGIAAGLDPETRSELIGSDFSDRHYFQRARNGETYISAPVVADSGNYIVTISTPIYRDGAVVGTLNAALHLQDSSIFRMASKTANRDSSVFIRTQSGNQIYNRSAHLSSDPVTANATVNETGWIVQVQTSRNVLAGDLRTVTIYQLGGIGLVLALISGFGSILYTQILRYHRQLVRGFEALQRQEYGQQVAEEATGDWGQIFTAFNELSQTLAEYEEERVKHRNELQQERDRFRRLFQSIPEPAVVVEYTGNKTLIHNVNEAFEETFGYEASNAVGGDINDFIVPDGSLEEAESIDQLSSSGKQVTHEVRREAADGKRDFLLRSTPAVDGEDEVYFGVYIDITDRKQQERELTETNSVLSSVLDNMPVGILIEDADRTITTANKKLLDILDVSLTPSGLIGCEYAEIAETLKTQFADPDQFNETVNKIHSTRDAVFDEELLMADGRILARSYVSYSLPDGTGNIWLYRDITKNRQRERKLRETLEKTQKLIQAESIDEAATIAVEIANQTLSFPLSSVHLERKDGELEPAAITDAFEEGVGDTPVYQRTADNSSIDKLVWDVYTSGETRVLTDTGAEIPETISGMPSSGGIIQPMTNHGVLVTLGDSPNRFDEFDQYLVELLGAILATTLDRINQKQQIESQRDNLDLLNQIVRHDIRNDLQILLGRLDLLAERANDAQSEHVNAALRCAENAVELTQSARELSEVLLQNGTDSKPISLNRVVRQQIEEIRSANTDAEITINGSIPDVMIRANEMFDSVIRNLLKNAIQHNDKQDPEITISAIDQKEYVQLRIADNGPGVRDAQKESIFGKGEKELESSGTGIGLYLVSTLIESYGGDVWVEDNNPRGAVFVIELVKDS | failed
5 | MKLSFSLPSKSKPKVTATTADGNNAVDDGTSKEFVTEFDPSKTLANSIPKYVIPPIENTWRPHKKMKNLDLPLQSGNAGSGLEFEPEVPLPGTEKPDNISYGLNLRQKVKDDSIGGDAVEERKVSMGEQLMLQSLRRDLMSLADDPTLEDFESVPVDGFGAALMAGYGWKPGKGIGKNAKEDVEIKEYKKWTAKEGLGFDPDRSKVVDVKAKVKESVKLDKKGVGINGGDVFFVGKEVRIIAGRDVGLKGKIVEKPGSDFFVIKISGSEEEVKVGVNEVADLGSKEEEKCLKKLKDLQLNDREKDKKTSGRGRGAERGSRSEVRASEKQDRGQTRERKVKPSWLRSHIKVRIVSKDWKGGRLYLKKGKVVDVVGPTTCDITMDETQELVQGVDQELLETALPRRGGPVLVLSGKHKGVYGNLVEKDLDKETGVVRDLDNHKMLDVRLDQVAEYMGDMDDIEY | failed
6 | MKLSIHGRKITLTDAIRKYAEEKISKVEKFNDSIIKIDATLAASKLKTGNAHVTEILAYLSGSTLKATATESDLYASIDKAVDIMESLLKKHKEKRSRAKVQDDTRKKSYSFDYIVEPEEKLSDEKKLVRVYLPLKPMEISEAILQLEYLNRVFFAFTNTTTGKMAVVYKRKDGDYGVIED | failed
7 | MKLSINDLNVFVNTPKDIAKLCEDLSRLGLEVESCIPCIAPKNVVVGKILEKAPHKNAEKLSVCQVDVGKEVLQIVCGAKNVAPNQFVPVALNGALIGSTTIAKTELRGVESHGMICSSIELGFPKINDGILELDESVGELVLGKELNEYAPFNTHVLEISLTPNRGDCLSVLGIAREISAFYHTPLKPIKALNFTPKSGLITLSAGENIESHLAYYLICNHSLKTPLNIKLSLAHNNALSENDLNNFIEFSTHFSGVIMNAYSLNTTPMDLSVKNDENNLESVYINHQKRSTIAIKHQVQKDLSECLLLEASYTDPISLSLKLHALKDKTLQKDNALIYRSARGSNPNLSDGLNFLSAHLKATILESKQTEHSLKDRTLTFQLEDITEILGLAVEKEKIQGILKNLGFKVSVKEPNSKPQILEVIAPNFRHDIKTIQDIAEEILRFVGIDNLVSKPLHCVSSKNSNPNYDTHRFFENLKHKALACGFKEVIHYVFYSKEKQQKLGFEVLEDPLELQNPITTELNTLRTSLVCGLLDASLRNKNLGFKSIALYEKGSVYNSKREEIQKLGFLISGLQKKESYPDTKGKAWDFYSFAECVSKVIGDFSLEKLTTQTPINHPYQSAKIIQNHEIIGVIAKIHPKVIQELDLFESYYAEIDAFKLKRPAMLLKPFSIYPSSVRDLTLIIDENTAFSGIKKALKDAQIPNLSEILPLDIFKESNNSIALSVRCVIHSLEKTLNDEEVNSAVQKALEILEKEFNARLKG | failed
8 | MKLTIIRLENFSDQDRIDLQKIWPEYSPSSLQVDDNYRIYAARFNERLLAAVRVTLSGTEGALDSLRVREVTRRRGVGQYLLEEVLRNNPDVSCWWMADAGVEDRGVMTAFMRALGFTAQQGGWEKH | failed
9 | MKLVCISDTHSLHRRIPEIPDGDVLIHAGDSLGQGSLENIEDLNDWLGTLPHRHKIVIAGNHDWAFQEMPGEARTALSNAVYLEDSGVEIEGNRFWGSPWTPTFMDWAFMLERGEPLYQKWQLVPDNTDVLITHGPPKGIGDEANLGFKCQNVGCVDLLARIHQLSLKAHIFGHIHEGYGEYLRGKTRLINASTCTARYEPRNAPIVVDVLEHHHHHH | failed
10 | MKLVFVTVNYNNIDETRKVLNCFSGLSHGENSVLYVVDNSDSKSECQSLDKENTNNKIKFLYPKENLGYLTGASFGVDFHYNNHGFDFDYLIILNNDIIFNVNEVLKSLEIFSQNNDAMMISPLVIDRGVNVNPYLTVRKSKRYMMFWNFILSNFFTFKVFHKINKYRALLSSKNNFSSTVQPFQKIYGSHGSVFILKNEYFLRGGSLRRLPFLYGEEIYIAEQVRKLGGDCVYYPSIKFEHKGSATLGNDTSRFKYLCIKQGHSFLYREFYS | failed

— a protein production outcome set (Wang et al. 2014)
